According to paper PMC6642015 (Cell chemical biology, 2019):

T1: human MCM-CblA complex (Homo sapiens, UniProt Q8IVH4)
T1 sequence (Q8IVH4 66-418 limits assumed): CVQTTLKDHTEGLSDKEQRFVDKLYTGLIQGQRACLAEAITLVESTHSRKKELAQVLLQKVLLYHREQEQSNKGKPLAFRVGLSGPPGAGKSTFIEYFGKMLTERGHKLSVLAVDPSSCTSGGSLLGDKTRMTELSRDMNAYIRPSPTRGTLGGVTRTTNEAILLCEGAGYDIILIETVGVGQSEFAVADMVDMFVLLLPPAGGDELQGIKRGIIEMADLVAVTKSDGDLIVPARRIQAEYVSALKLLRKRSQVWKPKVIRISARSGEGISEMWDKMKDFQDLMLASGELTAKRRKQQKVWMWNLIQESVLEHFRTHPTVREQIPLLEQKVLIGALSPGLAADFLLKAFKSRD
T1 sequence (P22033 33-750 partner): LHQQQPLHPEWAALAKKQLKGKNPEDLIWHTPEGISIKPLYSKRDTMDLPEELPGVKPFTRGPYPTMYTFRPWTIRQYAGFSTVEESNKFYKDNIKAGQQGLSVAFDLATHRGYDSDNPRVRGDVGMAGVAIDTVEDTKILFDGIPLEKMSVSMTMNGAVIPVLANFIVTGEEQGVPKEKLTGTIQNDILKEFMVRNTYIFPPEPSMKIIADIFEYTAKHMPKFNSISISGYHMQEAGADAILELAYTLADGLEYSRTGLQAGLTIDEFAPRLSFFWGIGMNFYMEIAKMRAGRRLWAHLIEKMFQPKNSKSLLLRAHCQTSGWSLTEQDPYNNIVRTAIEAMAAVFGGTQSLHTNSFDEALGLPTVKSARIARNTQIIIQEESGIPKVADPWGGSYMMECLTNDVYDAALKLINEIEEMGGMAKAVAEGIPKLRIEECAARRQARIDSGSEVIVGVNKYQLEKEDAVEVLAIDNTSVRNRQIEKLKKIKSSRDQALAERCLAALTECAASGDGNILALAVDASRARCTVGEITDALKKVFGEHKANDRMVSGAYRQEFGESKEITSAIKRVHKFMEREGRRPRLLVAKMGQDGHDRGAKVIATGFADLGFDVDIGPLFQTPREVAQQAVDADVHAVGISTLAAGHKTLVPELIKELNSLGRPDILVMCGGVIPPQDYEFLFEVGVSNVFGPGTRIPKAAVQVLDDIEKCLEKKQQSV

T2: human CblA K276E (human, UniProt Q8IVH4 72-418, K276E)
T2 sequence: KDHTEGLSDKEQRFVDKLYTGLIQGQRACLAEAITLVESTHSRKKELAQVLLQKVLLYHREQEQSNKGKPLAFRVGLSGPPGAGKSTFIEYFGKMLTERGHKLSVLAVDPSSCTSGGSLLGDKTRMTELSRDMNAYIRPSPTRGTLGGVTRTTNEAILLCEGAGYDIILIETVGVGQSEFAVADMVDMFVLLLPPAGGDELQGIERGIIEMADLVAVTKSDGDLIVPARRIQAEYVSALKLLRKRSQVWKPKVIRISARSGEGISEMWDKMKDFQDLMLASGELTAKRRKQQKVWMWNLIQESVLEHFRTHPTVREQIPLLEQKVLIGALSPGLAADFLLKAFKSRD

T3: human CblA K276A (human, UniProt Q8IVH4 72-418, K276A)
T3 sequence: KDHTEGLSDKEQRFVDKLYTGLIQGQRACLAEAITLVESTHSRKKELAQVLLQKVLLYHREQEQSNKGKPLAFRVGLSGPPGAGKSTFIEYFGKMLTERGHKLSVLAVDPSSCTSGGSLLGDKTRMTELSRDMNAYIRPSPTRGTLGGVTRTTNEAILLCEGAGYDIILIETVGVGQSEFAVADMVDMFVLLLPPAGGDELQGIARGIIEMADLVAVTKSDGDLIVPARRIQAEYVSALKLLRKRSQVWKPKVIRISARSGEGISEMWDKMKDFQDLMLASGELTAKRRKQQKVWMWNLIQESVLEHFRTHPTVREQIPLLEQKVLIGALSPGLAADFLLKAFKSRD

T4: human CblA G278D (human, UniProt Q8IVH4 72-418, G278D)
T4 sequence: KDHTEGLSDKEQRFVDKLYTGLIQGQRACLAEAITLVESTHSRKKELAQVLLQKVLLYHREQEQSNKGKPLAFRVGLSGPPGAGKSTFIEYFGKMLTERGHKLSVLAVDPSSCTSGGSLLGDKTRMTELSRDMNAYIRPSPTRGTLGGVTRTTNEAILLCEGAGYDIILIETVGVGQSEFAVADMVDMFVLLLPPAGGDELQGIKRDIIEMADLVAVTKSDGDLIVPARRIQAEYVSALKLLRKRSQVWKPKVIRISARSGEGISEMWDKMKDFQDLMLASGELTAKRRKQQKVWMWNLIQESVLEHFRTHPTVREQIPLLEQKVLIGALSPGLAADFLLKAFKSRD

T5: human CblA, wild type (human, UniProt Q8IVH4 72-418)
T5 sequence: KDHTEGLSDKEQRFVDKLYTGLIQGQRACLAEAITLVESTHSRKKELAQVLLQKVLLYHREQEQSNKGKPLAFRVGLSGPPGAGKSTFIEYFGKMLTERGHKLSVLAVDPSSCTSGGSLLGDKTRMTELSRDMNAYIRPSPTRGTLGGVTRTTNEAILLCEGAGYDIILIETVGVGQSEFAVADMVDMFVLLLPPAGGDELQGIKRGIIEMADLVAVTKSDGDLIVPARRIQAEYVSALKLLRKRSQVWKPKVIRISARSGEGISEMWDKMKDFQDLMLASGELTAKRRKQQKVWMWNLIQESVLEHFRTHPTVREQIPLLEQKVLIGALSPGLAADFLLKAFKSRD

T6: human CblA Q273A (human, UniProt Q8IVH4 72-418, Q273A)
T6 sequence: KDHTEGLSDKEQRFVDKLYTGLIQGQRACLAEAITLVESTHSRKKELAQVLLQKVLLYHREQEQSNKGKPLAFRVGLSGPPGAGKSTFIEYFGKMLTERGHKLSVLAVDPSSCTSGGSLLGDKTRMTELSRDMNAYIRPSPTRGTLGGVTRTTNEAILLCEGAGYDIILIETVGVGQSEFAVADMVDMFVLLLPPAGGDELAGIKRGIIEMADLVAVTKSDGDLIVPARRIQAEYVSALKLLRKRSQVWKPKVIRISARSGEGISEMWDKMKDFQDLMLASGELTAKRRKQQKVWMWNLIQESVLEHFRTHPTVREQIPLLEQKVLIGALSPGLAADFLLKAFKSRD

T7: human CblA G274S (human, UniProt Q8IVH4 72-418, G274S)
T7 sequence: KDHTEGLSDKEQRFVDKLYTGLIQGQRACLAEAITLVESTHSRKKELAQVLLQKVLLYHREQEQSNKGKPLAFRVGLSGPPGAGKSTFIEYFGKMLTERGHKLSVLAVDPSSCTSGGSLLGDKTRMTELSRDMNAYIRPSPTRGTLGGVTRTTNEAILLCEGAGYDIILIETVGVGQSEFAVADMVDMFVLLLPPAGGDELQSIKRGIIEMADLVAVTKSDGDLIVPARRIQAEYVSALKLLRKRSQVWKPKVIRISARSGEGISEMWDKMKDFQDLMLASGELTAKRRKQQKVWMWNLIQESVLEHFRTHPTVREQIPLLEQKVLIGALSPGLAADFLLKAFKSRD


How the values were obtained:
human MCM-CblA complex = target: T1, human MCM-CblA complex; test: gel filtration and negative stain EM; format: binding; conditions: MCM 25 μM, CblA 50 μM, GMPPCP 500 μM
human CblA K276E = target: T2, human CblA K276E; test: cell-based or functional assay
human CblA K276A = target: T3, human CblA K276A; test: cell-based or functional assay
human CblA G278D = target: T4, human CblA G278D; test: cell-based or functional assay
human CblA, wild type [1] = target: T5, human CblA, wild type; test: cell-based or functional assay
human CblA Q273A = target: T6, human CblA Q273A; test: cell-based or functional assay
human CblA G274S = target: T7, human CblA G274S; test: cell-based or functional assay
human CblA, wild type [2] = target: T5, human CblA, wild type; test: SEC-MALS

| GTPase activity of CblA in the presence of MCM (GAP activation) (human CblA K276E) [min⁻¹] | GTPase activity of CblA in the presence of MCM (GAP activation) (human CblA K276A) [min⁻¹] | GTPase activity of CblA in the presence of MCM (GAP activation) (human CblA G278D) [min⁻¹] | GTPase activity of CblA in the presence of MCM (GAP activation) (human CblA, wild type [1]) [min⁻¹] | GTPase activity of CblA in the presence of MCM (GAP activation) (human CblA Q273A) [min⁻¹] | GTPase activity of CblA in the presence of MCM (GAP activation) (human CblA G274S) [min⁻¹] | stoichiometry N (human CblA, wild type [2]) | Molecule | gel filtration and negative stain EM; block of AdoCbl transfer (human MCM-CblA complex) |
| --- | --- | --- | --- | --- | --- | --- | --- | --- |
| – | – | – | – | – | – | – | Nc1nc2c(ncn2[C@@H]2O[C@H](COP(=O)(O)OP(=O)(O)CP(=O)(O)O)[C@@H](O)[C@H]2O)c(=O)[nH]1 [GMPPCP] | higher order oligomeric peak seen in the presence of GMPPCP |
| 0.92 | 2.98 | 3.07 | 2.78 | 0.86 | 1.04 | 2 MCM (dimer) per CblA (dimer) | human methylmalonyl-CoA mutase (enzyme, UniProt P22033 33-750, looked up) LHQQQPLHPEWAALAKKQLKGKNPEDLIWHTPEGISIKPLYSKRDTMDLPEELPGVKPFTRGPYPTMYTFRPWTIRQYAGFSTVEESNKFYKDNIKAGQQGLSVAFDLATHRGYDSDNPRVRGDVGMAGVAIDTVEDTKILFDGIPLEKMSVSMTMNGAVIPVLANFIVTGEEQGVPKEKLTGTIQNDILKEFMVRNTYIFPPEPSMKIIADIFEYTAKHMPKFNSISISGYHMQEAGADAILELAYTLADGLEYSRTGLQAGLTIDEFAPRLSFFWGIGMNFYMEIAKMRAGRRLWAHLIEKMFQPKNSKSLLLRAHCQTSGWSLTEQDPYNNIVRTAIEAMAAVFGGTQSLHTNSFDEALGLPTVKSARIARNTQIIIQEESGIPKVADPWGGSYMMECLTNDVYDAALKLINEIEEMGGMAKAVAEGIPKLRIEECAARRQARIDSGSEVIVGVNKYQLEKEDAVEVLAIDNTSVRNRQIEKLKKIKSSRDQALAERCLAALTECAASGDGNILALAVDASRARCTVGEITDALKKVFGEHKANDRMVSGAYRQEFGESKEITSAIKRVHKFMEREGRRPRLLVAKMGQDGHDRGAKVIATGFADLGFDVDIGPLFQTPREVAQQAVDADVHAVGISTLAAGHKTLVPELIKELNSLGRPDILVMCGGVIPPQDYEFLFEVGVSNVFGPGTRIPKAAVQVLDDIEKCLEKKQQSV | – |
